Laboratory results published in patent US20150125857A1.

Experiments:
[1] = target: Frizzled (FZD) on the cell surface of pancreatic cancer cell lines; test: flow cytometry, PK1 cells, pGL2 siRNA
[2] = target: Frizzled (FZD) on the cell surface of pancreatic cancer cell lines; test: flow cytometry, PK1 cells, RNF43 siRNA
[3] = target: Frizzled (FZD) on the cell surface of pancreatic cancer cell lines; test: flow cytometry, YAPC cells, pGL2 siRNA
[4] = target: Frizzled (FZD) on the cell surface of pancreatic cancer cell lines; test: flow cytometry, YAPC cells, RNF43 siRNA
[5] = target: Frizzled (FZD) on the cell surface of pancreatic cancer cell lines; test: flow cytometry, HPAFII cells, pGL2 siRNA
[6] = target: Frizzled (FZD) on the cell surface of pancreatic cancer cell lines; test: flow cytometry, Capan-2 cells, pGL2 siRNA
[7] = target: Frizzled (FZD) on the cell surface of pancreatic cancer cell lines; test: flow cytometry, HPAFII cells, RNF43 siRNA
[8] = target: Frizzled (FZD) on the cell surface of pancreatic cancer cell lines; test: flow cytometry, Capan-2 cells, RNF43 siRNA
[9] = target: Frizzled (FZD) on the cell surface of pancreatic cancer cell lines; test: flow cytometry, YAPC cells treated with DMSO
[10] = target: Frizzled (FZD) on the cell surface of pancreatic cancer cell lines; test: flow cytometry, PaTu-8988S cells, pGL2 siRNA
[11] = target: Frizzled (FZD) on the cell surface of pancreatic cancer cell lines; test: flow cytometry, PaTu-8988S cells, RNF43 siRNA
[12] = target: Frizzled (FZD) on the cell surface of pancreatic cancer cell lines; test: flow cytometry, YAPC cells treated with 3 uM IWP-2
[13] = target: Frizzled (FZD) on the cell surface of pancreatic cancer cell lines; test: flow cytometry, YAPC cells treated with 1 uM LGK974
[14] = target: Frizzled (FZD) on the cell surface of pancreatic cancer cell lines; test: flow cytometry, YAPC cells stably expressing RNF43 F69C
[15] = target: Frizzled (FZD) on the cell surface of pancreatic cancer cell lines; test: flow cytometry, YAPC cells stably expressing RNF43 deltaRING
[16] = target: Frizzled (FZD) on the cell surface of pancreatic cancer cell lines; test: flow cytometry, YAPC cells stably expressing wild-type RNF43
[17] = target: Frizzled (FZD) on the cell surface of pancreatic cancer cell lines; test: flow cytometry, YAPC cells stably expressing empty vector (EV)
[18] = target: Frizzled (FZD) on the cell surface of pancreatic cancer cell lines; test: flow cytometry, YAPC cells transfected with beta-catenin siRNA#1
[19] = target: Frizzled (FZD) on the cell surface of pancreatic cancer cell lines; test: flow cytometry, YAPC cells transfected with beta-catenin siRNA#2
[20] = target: Frizzled (FZD) on the cell surface of pancreatic cancer cell lines; test: flow cytometry, YAPC cells transfected with pGL2 siRNA (control)
[21] = target: Frizzled (FZD) on the cell surface of pancreatic cancer cell lines; test: flow cytometry, YAPC cells transfected with RNF43 siRNA#1, 18R5 + APC anti-human IgG
[22] = target: Frizzled (FZD) on the cell surface of pancreatic cancer cell lines; test: flow cytometry, YAPC cells transfected with RNF43 siRNA#2, 18R5 + APC anti-human IgG
[23] = target: Frizzled (FZD) on the cell surface of pancreatic cancer cell lines; test: flow cytometry, YAPC cells transfected with pGL2 siRNA (control), 18R5 + APC anti-human IgG

Mean FZD intensity in FACS [1]: 473
Mean FZD intensity in FACS [2]: 923
Mean FZD intensity in FACS [3]: 353
Mean FZD intensity in FACS [4]: 1220
Mean FZD intensity in FACS [5]: 375
Mean FZD intensity in FACS [6]: 2440
Mean FZD intensity in FACS [7]: 402
Mean FZD intensity in FACS [8]: 2640
Median FZD intensity in FACS [9]: 721
Mean FZD intensity in FACS [10]: 293
Mean FZD intensity in FACS [11]: 245
Median FZD intensity in FACS [12]: 1750
Median FZD intensity in FACS [13]: 1370
membrane Frizzled intensity in flow cytometry (RNF43 re-expression) [14]: 1500
membrane Frizzled intensity in flow cytometry (RNF43 re-expression) [15]: 2000
membrane Frizzled intensity in flow cytometry (RNF43 re-expression) [16]: 686
membrane Frizzled intensity in flow cytometry (RNF43 re-expression) [17]: 1040
Median FZD intensity in FACS [18]: 530
Median FZD intensity in FACS [19]: 561
Median FZD intensity in FACS [20]: 137
Median FZD intensity in FACS [21]: 1500
Median FZD intensity in FACS [22]: 1750
Median FZD intensity in FACS [23]: 237
B1: pan-Frizzled antibody 18R5 (antibody, INN chains, looked up, V domains shown)
VH: EVQLVESGGGLVQPGGSLRLSCAASGFTFSHYTLSWVRQAPGKGLEWVSVISGDGSYTYYADSVKGRFTISSDNSKNTLYLQMNSLRAEDTAVYYCARNFIKYVFANWGQGTLVTVSS
VL: DIELTQPPSVSVAPGQTARISCSGDNIGSFYVHWYQQKPGQAPVLVIYDKSNRPSGIPERFSGSNSGNTATLTISGTQAEDEADYYCQSYANTLSLVFGGGTKLTVL
